Results on 8 molecules are retold here after PMC5608764, “Aromatic side-chain conformational switch on the surface of the RNA Recognition Motif enables RNA discrimination”.

Series [1] concerns the target T1, CUG-BP2 RRM3 wild-type (UniProt O95319 416-508, Y508W). Nature of the series: NMR 15N-HSQC titration; 25 C; multiple registers; 20 mM K phosphate pH 5.8, 10 mM NaCl, 0.1% beta-mercaptoethanol, 25 C (NMR titrations and ITC); hnRNP A1: 10 mM Na phosphate pH 6.5, 10 mM beta-mercaptoethanol. To be noted: protein: recombinant.
Series [2] addresses T1, CUG-BP2 RRM3 wild-type. Kind of series: NMR 15N-HSQC titration; 20 mM K phosphate pH 5.8, 10 mM NaCl, 0.1% beta-mercaptoethanol, 25 C (NMR titrations and ITC); hnRNP A1: 10 mM Na phosphate pH 6.5, 10 mM beta-mercaptoethanol. To be noted: protein: recombinant.
Series [3] concerns the target T1, CUG-BP2 RRM3 wild-type. Kind of series: ITC; 25 C; 20 mM K phosphate pH 5.8, 10 mM NaCl, 0.1% beta-mercaptoethanol, 25 C (NMR titrations and ITC); hnRNP A1: 10 mM Na phosphate pH 6.5, 10 mM beta-mercaptoethanol. Particulars: protein: recombinant. In general terms: Isothermal titration calorimetry measures the heat released or taken up as one component is titrated into another.

Series [4] deals with T2, CUG-BP2 RRM3 Y428A (UniProt O95319 416-508, Y428A;Y508W). Described as above. To be noted: protein: recombinant; tags: His-tag (pET28a).
In series [5] the target is T3, CUG-BP2 RRM3 H429A (UniProt O95319 416-508, H429A;Y508W). The description is as above. Particulars: protein: recombinant; tags: His-tag (pET28a).
Series [6] deals with T4, CUG-BP2 RRM3 F455A (UniProt O95319 416-508, F455A;Y508W). The series is described as above. Particulars: protein: recombinant; tags: His-tag (pET28a).
The target in series [7] is T1, CUG-BP2 RRM3 wild-type. Kind of series: NMR 15N-HSQC titration; 25 C; RNA variant series; 20 mM K phosphate pH 5.8, 10 mM NaCl, 0.1% beta-mercaptoethanol, 25 C (NMR titrations and ITC); hnRNP A1: 10 mM Na phosphate pH 6.5, 10 mM beta-mercaptoethanol. Particulars: protein: recombinant.
The next series has as its target CUG-BP2 RRM3 K499A (UniProt O95319 416-508, K499A;Y508W). Kind of series: NMR 15N-HSQC titration; 20 mM K phosphate pH 5.8, 10 mM NaCl, 0.1% beta-mercaptoethanol, 25 C (NMR titrations and ITC); hnRNP A1: 10 mM Na phosphate pH 6.5, 10 mM beta-mercaptoethanol. Particulars: protein: recombinant; tags: His-tag (pET28a).
Another series deals with CUG-BP2 RRM3 K495A (UniProt O95319 416-508, K495A;Y508W). The series is described as above. Particulars: protein: recombinant; tags: His-tag (pET28a).
For the next series, the target named is CUG-BP2 RRM3 F426A (UniProt O95319 416-508, F426A;Y508W). The description is as above. Particulars: protein: recombinant; tags: His-tag (pET28a).
The target in series [8] is T2, CUG-BP2 RRM3 Y428A. The series is described as above. To be noted: protein: recombinant; tags: His-tag (pET28a).
Series [9] has as its target T3, CUG-BP2 RRM3 H429A. Described as above. To be noted: protein: recombinant; tags: His-tag (pET28a).
In series [10] the target is T4, CUG-BP2 RRM3 F455A. The description is as above. To be noted: protein: recombinant; tags: His-tag (pET28a).
The target in the next series is CUG-BP2 RRM3 K453A (UniProt O95319 416-508, K453A;Y508W). The series is described as above. Particulars: protein: recombinant; tags: His-tag (pET28a).
A further series addresses CUG-BP2 RRM3 Q497A (UniProt O95319 416-508, Q497A;Y508W). Described as above. To be noted: protein: recombinant; tags: His-tag (pET28a).
Series [11] has as its target T1, CUG-BP2 RRM3 wild-type. Kind of series: ITC; 20 mM K phosphate pH 5.8, 10 mM NaCl, 0.1% beta-mercaptoethanol, 25 C (NMR titrations and ITC); hnRNP A1: 10 mM Na phosphate pH 6.5, 10 mM beta-mercaptoethanol. To be noted: protein: recombinant.
Series [12] has as its target T1, CUG-BP2 RRM3 wild-type. Nature of the series: NMR 15N-HSQC titration; protein mutant series; 20 mM K phosphate pH 5.8, 10 mM NaCl, 0.1% beta-mercaptoethanol, 25 C (NMR titrations and ITC); hnRNP A1: 10 mM Na phosphate pH 6.5, 10 mM beta-mercaptoethanol. Particulars: protein: recombinant.

T1 sequence (O95319 416-508 Y508W): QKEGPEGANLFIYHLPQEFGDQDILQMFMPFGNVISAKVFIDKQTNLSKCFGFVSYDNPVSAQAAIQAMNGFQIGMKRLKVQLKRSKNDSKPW
T4 sequence (O95319 416-508 F455A/Y508W): as the sequence (O95319 416-508 Y508W) above, with F40A counted along it
T3 sequence (O95319 416-508 H429A/Y508W): as the sequence (O95319 416-508 Y508W) above, with H14A counted along it
T2 sequence (O95319 416-508 Y428A/Y508W): as the sequence (O95319 416-508 Y508W) above, with Y13A counted along it
CUG-BP2 RRM3 F426A, sequence (O95319 416-508 F426A/Y508W): as the sequence (O95319 416-508 Y508W) above, with F11A counted along it
CUG-BP2 RRM3 Q497A, sequence (O95319 416-508 Q497A/Y508W): as the sequence (O95319 416-508 Y508W) above, with Q82A counted along it
CUG-BP2 RRM3 K453A, sequence (O95319 416-508 K453A/Y508W): as the sequence (O95319 416-508 Y508W) above, with K38A counted along it
CUG-BP2 RRM3 K499A, sequence (O95319 416-508 K499A/Y508W): as the sequence (O95319 416-508 Y508W) above, with K84A counted along it
CUG-BP2 RRM3 K495A, sequence (O95319 416-508 K495A/Y508W): as the sequence (O95319 416-508 Y508W) above, with K80A counted along it

As a reminder, the Kd is the free concentration of one partner at which half of the binding sites on the other are occupied at equilibrium, for simple one-to-one binding. AUUUAAUU (ssRNA): the Kd with CUG-BP2 RRM3 wild-type [1] came out at 31 ± 9 µM.
As for CUUAA (ssRNA), the Kd in the series with CUG-BP2 RRM3 wild-type [2] was determined as 54 ± 9 µM.
Same read-out and setting: for UUUAC (ssRNA) the value was 56 ± 8 µM; for UUUCA (ssRNA), 73 ± 13 µM.
On to UGUGU (ssRNA), for which the Kd with CUG-BP2 RRM3 wild-type [3] turned out to be 1.04 ± 0.04 µM; in the series with CUG-BP2 RRM3 Y428A [4] it was 0.31 ± 0.01 µM; with CUG-BP2 RRM3 H429A [5], 0.27 ± 0.05 µM; in the series with CUG-BP2 RRM3 F455A [6], 10.4 ± 0.87 µM.
Consider UCUAA (ssRNA), for which the Kd in the series with CUG-BP2 RRM3 wild-type [2] stood at 76 ± 27 µM.
For UUUAA (ssRNA), the Kd with CUG-BP2 RRM3 wild-type [7] is 66 ± 14 µM; with CUG-BP2 RRM3 K499A it was 91 ± 18 µM; in the series with CUG-BP2 RRM3 K495A, 63 ± 6 µM; with CUG-BP2 RRM3 F426A, 139 ± 10 µM; with CUG-BP2 RRM3 Y428A [8] it was 27 ± 3 µM; in the series with CUG-BP2 RRM3 H429A [9], 30 ± 4 µM. Also, the Kd with CUG-BP2 RRM3 F455A [10] came to 41 ± 5 µM; with CUG-BP2 RRM3 K453A, 78 ± 13 µM; with CUG-BP2 RRM3 Q497A, 60 ± 10 µM; in the series with CUG-BP2 RRM3 wild-type [11], 18 µM; with CUG-BP2 RRM3 wild-type [12] it was 62 ± 12 µM.
For the molecule UUCAA (ssRNA), in the series with CUG-BP2 RRM3 wild-type [2], the Kd worked out at 56 ± 12 µM.
